Test results from patent US20110059076A1, “HUMAN SERUM ALBUMIN LINKERS AND CONJUGATES THEREOF” (priority 2008, published 2011).
pIC50: −log10 of the molar value. “Also recorded” adds a separate entry of the source.

Key:
[1] = system: NCI-N87 (human gastric carcinoma) xenograft; experiment: NCI-N87 xenograft model; format: in vivo, mice; conditions: NCI-N87, 30 mg/kg every 3 days
Excerpt: (§1) Calu-3 (human lung adenocarcinoma; FIG. 17A), SKOV-3 (human ovarian adenocarcinoma; FIG. 17B), NCI-N87 (human gastric carcinoma; FIG. 17C), ACHN (human kidney adenocarcinoma; FIG. 17D), and MDA-MB-361 (human breast adenocarcinoma; FIG. 17E) xenograft model are shown.

[2] = system: CD31 in BT474-M3 breast cancer xenograft tumors; experiment: CD31 staining (vessel density) of xenograft tumors; format: in vivo; conditions: 30 mg/kg every 3 days, 4 doses
Excerpt: Tumors are stained for the presence of vascular marker CD31.

[3] = biological target: T1, recombinant extracellular domain of ErbB2 (Homo sapiens, UniProt P04626); experiment: specificity competition ELISA on ErbB2-coated plates; conditions: half-maximal binding concentration of B2B3-1
T1 construct: Plates are coated with the recombinant extracellular domain of either ErbB2 or ErbB3
Excerpt: (§2) Plates are coated with the recombinant extracellular domain of either ErbB2 or ErbB3.

[4] = system: Ki67 in BT474-M3 breast tumor xenografts; experiment: Ki67 staining of xenograft tumors; format: in vivo; conditions: 30 mg/kg every 3 days, 4 doses
[5] = system: ErbB3 phosphorylation in ZR75-30 cells; experiment: HRG-induced ErbB3 phosphorylation ELISA in ZR75-30; format: cell-based, human; conditions: ZR75-30, dose titration 24 hours, 5 nM HRG 1β EGF domain 10 minutes
Method: (§3) Except as noted, ELISA reagents for total and phospho-ErbB3 ELISAs are purchased from R&D Systems as DUOSET kits. 96-well NUNC MAXISORB plates are coated with 50 μl of an antibody and incubated overnight at room temperature. Next morning, plates are washed 3 times with 1000 μl/well in a BIOTEK plate washer with Dulbecco's phosphate buffered saline without calcium or magnesium (PBS) with added Tween detergent (PBST) (0.05% Tween-20). […] The plates are washed 3 times with 1000 μl/well in the BIOTEK plate washer with PBST. Cells are grown at 37° C. and 5% carbon dioxide, washed with cold PBS, then harvested with mammalian protein extract (MPER) lysis buffer (Pierce, 78505) to which 150 mM NaCl, 5 mM sodium pyrophosphate, 10 uM bpV (phen), 50uM phenylarsine, 1 mM sodium orthovanadate, and protease inhibitor cocktail (Sigma, P2714) is added. 50 μL of cell lysates and standards diluted in 50% Lysis buffer and 1% BSA are used in duplicates for further processing. Samples are incubated for 2hrs at 4° C. on a plate shaker and washed as before. About 50 μl of a detection antibody diluted in 2% BSA, PBST is added and incubated for about 1-2 hrs at room temperature. […] About 50 μL of SUPERSIGNAL ELISA Pico (Thermo Scientific) substrate is added and the plate is read using a FUSION plate reader. […]

[6] = system: ErbB3 phosphorylation in ZR75-1 breast cancer cells; experiment: agonistic activity: pErbB3 ELISA in ZR75-1 cells without HRG; format: cell-based; conditions: serum starved ZR75-1 cells, 1 μM, 24 hours, no HRG
Method: as §3
Cells are lysed and the pErbB3 content of the lysates is assessed by ELISA generally as described above.

[7] = system: MDA-MB-361 (human breast adenocarcinoma) xenograft; experiment: MDA-MB-361 xenograft model; format: in vivo, mice; conditions: MDA-MB-361, 30 mg/kg every 3 days
Excerpt: as §1

[8] = system: Calu-3 (human lung adenocarcinoma) xenograft; experiment: Calu-3 xenograft model; format: in vivo, mice; conditions: Calu-3, 30 mg/kg every 3 days
Excerpt: as §1

[9] = system: Cyclin D1 in BT-474-M3 cells; experiment: Cyclin D1 Western blot; format: cell-based; conditions: 72 hours
Excerpt: The cytoskeleton protein vinculin is used as a protein loading control in this experiment.

[10] = system: AKT phosphorylation in BT-474-M3 cells; experiment: HRG-induced AKT phosphorylation ELISA in BT-474-M3; format: cell-based, human; conditions: BT-474-M3, dose titration 24 hours, 5 nM HRG 1β EGF domain 10 minutes
[11] = biological target: T2, recombinant extracellular domain of ErbB3 (Homo sapiens, UniProt P21860); experiment: specificity competition ELISA on ErbB3-coated plates; conditions: half-maximal binding concentration of B2B3-1
T2 construct: Plates are coated with the recombinant extracellular domain of either ErbB2 or ErbB3
Excerpt: as §2

[12] = pharmacokinetics in Cynomolgus monkeys (dose range-finding toxicology study); format: in vivo, Cynomolgus monkey
Method: Blood samples for pharmacokinetic analysis are also obtained from a dose range-finding toxicology study in female Cynomolgus monkeys. […] Sampling occurred prior to and 5 minutes after dosing on each dosing day (study days 1, 4, 7 and 10) to provide pre-dose and peak/trough concentrations, and at 1, 2, 4, 8, 24 and 48 hours after the end of the first infusion on day 1 and at 1, 2, 4, 8, 24, 48, 72 and 120 hours after the last infusion on day 10. For recovery animals dosed at 200 mg/kg serum samples are also collected at 168, 336 and 456 hours after the last infusion.
Cynomolgus monkey serum samples are assayed using the ErbB2/ErbB3 ELISA method described previously.

BT-474 cells = experiment: cell impedance proliferation assay (RT-CES); format: cell-based; conditions: calculated 68 hours after treatment, read-out: IC50 of inhibition of cell impedance
[13] = system: pErbB3 and pAKT in BT-474-M3 cells; experiment: Western blot of heregulin induced ErbB3 activity in BT-474-M3 cells; format: cell-based; conditions: BT-474-M3, 24 hours, 10 nM or 100 nM, with or without 5 nM HRG 1β EGF
Excerpt: Lysates are subjected to immunoblot analysis for ErbB3, pErbB3, AKT, and pAKT.

[14] = Cynomolgus monkey (1st dose), 4 mg/kg
[15] = Cynomolgus monkey (1st dose), 20 mg/kg
[16] = Cynomolgus monkey (1st dose), 200 mg/kg
[17] = Cynomolgus monkey (4th dose), 4 mg/kg
[18] = Cynomolgus monkey (4th dose), 20 mg/kg
[19] = Cynomolgus monkey (4th dose), 200 mg/kg
[20] = Cynomolgus monkey (4th dose), 200 mg/kg, recovery animals

With “B2B3-1: bispecific scFv antibody fusion: anti-ErbB3 scFv H3 and anti-ErbB2 scFv B1D2 joined by a modified human serum albumin (HSA) linker” the tumor size reduction [1] was “efficacious”, the “vessel density (CD31) compared to HSA treated tumors” value [2] was “marked decrease in vessel density; also recorded: reduction of vessel density” and the “blocking of binding to ErbB2-coated plates by soluble extracellular domains of EGFR, ErbB2, ErbB3 or ErbB4” value [3] was “only soluble ErbB2 extracellular domain blocked; also recorded: binds specifically”. The “Ki67 expression compared to HSA treated tumors” value [4] was “reduced expression pattern; also recorded: reduction”, the “inhibition of HRG induced ErbB3 phosphorylation” value [5] was “inhibits” and the “levels of phosphorylated ErbB3 with B2B3-1 alone (agonistic activity)” value [6] was “comparable to the levels in untreated cells; also recorded: does not stimulate ErbB3 phosphorylation”. The tumor size reduction [7] was “efficacious”, the tumor size reduction [8] was “efficacious” and the “levels of Cyclin D1 compared to untreated cells” value [9] was “decrease”. The “inhibition of HRG induced AKT phosphorylation” value [10] was “inhibits”, the “blocking of binding to ErbB3-coated plates by soluble extracellular domains of EGFR, ErbB2, ErbB3 or ErbB4” value [11] was “only soluble ErbB3 extracellular domain blocked; also recorded: binds specifically” and the AUC [12, 14] was 3.44E+03 hr-μg/ml. For the same substance, the Clearance [12, 14] was 28.1 mL/day/kg, the T½β [12, 14] was 39.1 h and the AUC [12, 15] was 2.29E+04 hr-μg/ml. It also gave a Clearance [12, 15] of 21.1 mL/day/kg, a T½β [12, 15] of 33.1 h and an AUC [12, 16] of 3.18E+05 hr-μg/ml. The Clearance [12, 16] was 15.4 mL/day/kg, the T½β [12, 16] was 68.8 h and the AUC [12, 17] was 7.20E+03 hr-μg/ml. For the same substance, the Clearance [12, 17] was 14.4 mL/day/kg, the T½β [12, 17] was 44.9 h and the AUC [12, 18] was 8.20E+04 hr-μg/ml. The Clearance [12, 18] was 6 mL/day/kg, the T½β [12, 18] was 122.5 h and the AUC [12, 19] was 5.72E+05 hr-μg/ml. The Clearance [12, 19] was 8.4 mL/day/kg, the T½β [12, 19] was 69.7 h and the AUC [12, 20] was 5.99E+05 hr-μg/ml. It also gave a Clearance [12, 20] of 8.16 mL/day/kg, a T½β [12, 20] of 66.6 h and a Mean half-life estimates ([12]; Cynomolgus monkey, day 1, 4, 20 or 200 mg/kg) of 38.3 to 67.2 h. The pIC50 (BT-474 cells) was 7.48, the “inhibition of pAKT” value [13] was “in a ligand dependent manner” and the “inhibition of pErbB3” value [13] was “in a ligand dependent manner”.
